T1: human Cerberus (human, UniProt O95813 18-267, limits assumed)
T1 construct: it includes the native leader
T1 sequence: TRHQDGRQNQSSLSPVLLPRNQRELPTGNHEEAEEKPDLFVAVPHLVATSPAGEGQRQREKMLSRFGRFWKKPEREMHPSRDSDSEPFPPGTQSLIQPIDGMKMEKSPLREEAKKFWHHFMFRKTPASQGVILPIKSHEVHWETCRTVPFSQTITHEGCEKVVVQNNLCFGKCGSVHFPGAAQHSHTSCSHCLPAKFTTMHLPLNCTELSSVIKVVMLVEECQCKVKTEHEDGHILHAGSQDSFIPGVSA

B1: Human Coco, full length, Fc (TGGG linker and mFc) (Fc fusion)
chain: GRPEPQSPRPQSWAAANQTWALGPGALPPLVPASALGSWKAFLGLQKARQLGMGRLQRGQDEVAAVTLPLNPQEVIQGMCKAVPFVQVFSRPGCSAIRLRNHLCFGHCSSLYIPGSDPTPLVLCNSCMPARKRWAPVVLWCLTGSSASRRRVKISTMLIEGCHCSPKATGGGTHTCPPCPAPELLGGPSVFLFPPKPKDTLMISRTPEVTCVVVDVSHEDPEVKFNWYVDGVEVHNAKTKPREEQYNSTYRVVSVLTVLHQDWLNGKEYKCKVSNKALPVPIEKTISKAKGQPREPQVYTLPPSREEMTKNQVSLTCLVKGFYPSDIAVEWESNGQPENNYKTTPPVLDSDGSFFLYSKLTVDKSRWQQGNVFSCSVMHEALHNHYTQKSLSLSPGK
notes: Tested as conditioned medium; also called Coco-mFc; human Coco-mFc
B2: Activin A (ligand, UniProt P08476 311-426, looked up)
chain: GLECDGKVNICCKKQFFVSFKDIGWNDWIIAPSGYHANYCEGECPSHIAGTSGSSLSFHSTVINHYRMRGHSPFANLKSCCVPTKLRPMSMLYYDDGQNIIKKDIQNMIVEECGCS

The target of the test “Activin A” is B2. As to the kind of experiment: "similar experiments" to the A-204 reporter gene assay; method not further described. On the technique in general: Reporter assays use an easily measured gene product as a stand-in for the process of interest.
The target of a further test is T1, human Cerberus. Described as above.

Consider two molecules from patent publication US20090082270A1 (ACCELERON PHARMA, published 2009).

Regarding B1, the binding result in the test with Activin A is listed as “no binding”.

Take B2: the binding result with human Cerberus is “no binding”.
